The values that follow come from patent publication US20250277026A1.

The target in assay [1] is human Claudin-4 (human) (UniProt O14493). The assay is described as follows: FACS, Claudin-4-CHO-K1 cells. On the technique in general: In flow cytometry, cells or beads pass a laser one at a time.
Assay [2] has the same target. Kind of assay: FACS, MCF7 cells (endogenous CLDN3 and CLDN4).
The target of assay [3] is human Claudin-3 (human) (UniProt O15551). The assay is described as follows: FACS, Claudin-3-CHO-K1 cells (data not shown in the figures).
Assay [4] deals with human Claudin-4 (human) (UniProt O14493). Kind of assay: FACS, Claudin-4-CHO-K1 cells, serial dilution of the antibody, MFI.
The target in assay [5] is human Claudin-3 (human) (UniProt O15551). Kind of assay: FACS, Claudin-3-CHO-K1 cells, 5 µg/ml.
Assay [6] shares this target. Kind of assay: FACS, MCF7 cells (endogenous CLDN3 and CLDN4).
Assay [7] has the same target. The assay is described as follows: FACS, Claudin-3-CHO-K1 cells, serial dilution of the antibody, MFI.

Chain of human Claudin-4 (human) (O14493 whole entry): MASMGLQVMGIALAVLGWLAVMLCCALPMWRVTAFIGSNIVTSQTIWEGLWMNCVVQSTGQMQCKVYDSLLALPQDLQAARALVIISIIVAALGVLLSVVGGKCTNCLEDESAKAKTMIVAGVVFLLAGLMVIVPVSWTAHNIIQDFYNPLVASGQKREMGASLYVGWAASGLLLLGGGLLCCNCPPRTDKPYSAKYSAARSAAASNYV
Chain of human Claudin-3 (human) (O15551 whole entry): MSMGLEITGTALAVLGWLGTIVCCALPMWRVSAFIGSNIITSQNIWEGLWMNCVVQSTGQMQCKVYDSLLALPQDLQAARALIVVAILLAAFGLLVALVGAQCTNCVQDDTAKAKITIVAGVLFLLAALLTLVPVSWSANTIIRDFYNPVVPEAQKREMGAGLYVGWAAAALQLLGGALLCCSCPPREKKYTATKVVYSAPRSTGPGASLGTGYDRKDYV

Broadly, the EC50 (read off the curve) is the concentration at which the effect is half-maximal. A low value points to higher potency in that assay. Regarding anti-Claudin-4 antibody MAB4219 (R&D), the values for the fold MFI over isotype control in assay [1], in assay [2] and in assay [3] were 33 fold, 15 fold and 9.7 fold, respectively. This substance displayed an EC50 (read off the curve) in assay [4] of 2 nM.
With anti-claudin 3 antibody MAB4620 (R&D), the figures for the fold MFI over isotype control in assay [5] and in assay [6] were 61 fold and 20 fold, respectively. In assay [7], the EC50 (read off the curve) amounted to 0.6 nM.
